Among the data in patent US5885772 are Kd and stoichiometry (actin monomers per MacMARCKS) values, retold here.

For this assay, the target named is F-actin. As to the kind of experiment: cosedimentation with F-actin through a sucrose cushion, SDS-PAGE.

In general, Kd refers to the constant that tells how readily two partners part at equilibrium. MacMARCKS registered a Kd of 53 nM and a stoichiometry (actin monomers per MacMARCKS) of 12.
